{"source": "patent US20150320832A1", "biological_target": "Flightless I protein (human, endogenous in MET-1 and CC keratinocytes) (human) (UniProt Q13045)", "sequence (Q13045 whole entry)": "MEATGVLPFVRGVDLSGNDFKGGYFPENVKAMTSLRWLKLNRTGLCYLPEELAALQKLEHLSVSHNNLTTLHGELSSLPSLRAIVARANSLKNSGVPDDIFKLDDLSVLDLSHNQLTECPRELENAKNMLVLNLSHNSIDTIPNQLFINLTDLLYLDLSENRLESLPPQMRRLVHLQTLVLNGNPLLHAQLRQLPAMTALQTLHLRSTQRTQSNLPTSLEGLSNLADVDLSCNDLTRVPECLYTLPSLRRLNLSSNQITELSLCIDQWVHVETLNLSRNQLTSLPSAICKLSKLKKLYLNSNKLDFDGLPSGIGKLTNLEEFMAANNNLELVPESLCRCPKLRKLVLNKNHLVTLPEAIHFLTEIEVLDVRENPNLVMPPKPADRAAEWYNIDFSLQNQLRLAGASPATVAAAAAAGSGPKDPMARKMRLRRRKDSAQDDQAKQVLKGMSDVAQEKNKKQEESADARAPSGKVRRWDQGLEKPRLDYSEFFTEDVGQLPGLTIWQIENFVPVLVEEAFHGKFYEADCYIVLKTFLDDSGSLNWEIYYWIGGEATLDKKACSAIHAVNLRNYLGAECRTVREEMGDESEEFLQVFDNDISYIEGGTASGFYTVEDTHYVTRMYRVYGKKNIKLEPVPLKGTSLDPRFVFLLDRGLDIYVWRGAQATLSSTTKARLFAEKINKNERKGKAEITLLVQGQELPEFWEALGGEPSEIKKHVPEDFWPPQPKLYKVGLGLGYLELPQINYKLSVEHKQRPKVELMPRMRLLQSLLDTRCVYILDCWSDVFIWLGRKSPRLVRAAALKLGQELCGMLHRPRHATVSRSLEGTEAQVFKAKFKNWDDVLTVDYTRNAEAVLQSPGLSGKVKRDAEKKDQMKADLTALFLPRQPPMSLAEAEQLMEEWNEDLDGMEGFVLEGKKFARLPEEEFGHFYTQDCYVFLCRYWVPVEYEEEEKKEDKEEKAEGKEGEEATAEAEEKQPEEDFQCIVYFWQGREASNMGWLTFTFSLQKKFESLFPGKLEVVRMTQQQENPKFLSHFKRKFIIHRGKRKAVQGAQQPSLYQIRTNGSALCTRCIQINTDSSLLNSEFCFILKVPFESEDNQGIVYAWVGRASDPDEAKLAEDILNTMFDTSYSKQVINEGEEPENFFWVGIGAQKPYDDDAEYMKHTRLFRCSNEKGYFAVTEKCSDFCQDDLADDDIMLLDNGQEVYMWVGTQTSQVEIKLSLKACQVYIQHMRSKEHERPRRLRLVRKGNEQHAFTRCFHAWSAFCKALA", "experiment": "cell-based or functional assay"}
{"substance": "rFLAP-1 protein (LRRFIP1 (657-784) Protein-H00009208-Q01, Abnova Technologies) (from UniProt Q32MZ4 657-784)", "values": [{"measurement": "decrease in cell invasion properties of RDEB-SCC (CC) cells, 3D organotypic model", "result": 30, "unit": "%"}, {"measurement": "decrease in cell invasion properties of sporadic SCC (MET-1) cells, 3D organotypic model", "result": 60, "unit": "%"}]}
